Experiments:
[1] = molecular target: T1, malonyl-CoA reductase from Chloroflexus aurantiacus (MCRCa), SEQ ID NO: 8 (Chloroflexus aurantiacus, UniProt Q6QQP7); settings: read-out: apparent Km value for malonyl-CoA; Hügler et al., 2002; cited from earlier work
T1 sequence (Q6QQP7 1-1220): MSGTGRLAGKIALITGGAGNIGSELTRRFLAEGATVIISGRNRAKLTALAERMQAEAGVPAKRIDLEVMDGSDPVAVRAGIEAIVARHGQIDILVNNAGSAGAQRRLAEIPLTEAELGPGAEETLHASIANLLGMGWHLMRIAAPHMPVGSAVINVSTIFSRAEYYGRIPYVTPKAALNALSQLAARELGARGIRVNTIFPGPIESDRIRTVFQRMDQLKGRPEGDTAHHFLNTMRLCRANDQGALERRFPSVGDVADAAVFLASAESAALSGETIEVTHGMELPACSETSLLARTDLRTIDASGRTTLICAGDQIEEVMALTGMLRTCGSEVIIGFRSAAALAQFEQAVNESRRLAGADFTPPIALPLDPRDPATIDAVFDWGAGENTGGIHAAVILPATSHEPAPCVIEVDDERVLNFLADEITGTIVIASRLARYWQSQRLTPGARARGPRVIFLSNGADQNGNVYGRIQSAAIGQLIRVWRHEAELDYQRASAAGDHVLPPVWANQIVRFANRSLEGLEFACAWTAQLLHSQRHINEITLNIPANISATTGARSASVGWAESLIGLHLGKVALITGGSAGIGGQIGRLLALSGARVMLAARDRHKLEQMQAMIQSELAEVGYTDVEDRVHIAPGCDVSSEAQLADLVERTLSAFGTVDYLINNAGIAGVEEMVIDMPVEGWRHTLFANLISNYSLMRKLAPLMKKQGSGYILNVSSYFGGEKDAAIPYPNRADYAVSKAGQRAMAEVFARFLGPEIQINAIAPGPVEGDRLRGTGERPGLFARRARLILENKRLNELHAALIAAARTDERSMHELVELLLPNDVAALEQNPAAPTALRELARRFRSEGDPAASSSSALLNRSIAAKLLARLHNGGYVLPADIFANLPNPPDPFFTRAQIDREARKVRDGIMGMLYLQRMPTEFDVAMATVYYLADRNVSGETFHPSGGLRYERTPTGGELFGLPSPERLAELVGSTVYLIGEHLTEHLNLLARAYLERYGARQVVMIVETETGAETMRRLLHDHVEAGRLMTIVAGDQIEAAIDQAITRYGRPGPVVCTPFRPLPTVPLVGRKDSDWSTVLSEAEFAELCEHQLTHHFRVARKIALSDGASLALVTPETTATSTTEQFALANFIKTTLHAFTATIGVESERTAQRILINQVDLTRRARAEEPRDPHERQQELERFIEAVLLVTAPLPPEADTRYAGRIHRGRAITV

[2] = molecular target: T2, propionyl-CoA transferase from Ralstonia eutropha (PCTRe), wild type, SEQ ID NO: 12 (Cupriavidus necator, UniProt Q0K874); settings: 37° C., pH 7.5, 2 mM acetyl-CoA, 10-800 mM glycolate; n=3
T2 sequence (Q0K874 1-542): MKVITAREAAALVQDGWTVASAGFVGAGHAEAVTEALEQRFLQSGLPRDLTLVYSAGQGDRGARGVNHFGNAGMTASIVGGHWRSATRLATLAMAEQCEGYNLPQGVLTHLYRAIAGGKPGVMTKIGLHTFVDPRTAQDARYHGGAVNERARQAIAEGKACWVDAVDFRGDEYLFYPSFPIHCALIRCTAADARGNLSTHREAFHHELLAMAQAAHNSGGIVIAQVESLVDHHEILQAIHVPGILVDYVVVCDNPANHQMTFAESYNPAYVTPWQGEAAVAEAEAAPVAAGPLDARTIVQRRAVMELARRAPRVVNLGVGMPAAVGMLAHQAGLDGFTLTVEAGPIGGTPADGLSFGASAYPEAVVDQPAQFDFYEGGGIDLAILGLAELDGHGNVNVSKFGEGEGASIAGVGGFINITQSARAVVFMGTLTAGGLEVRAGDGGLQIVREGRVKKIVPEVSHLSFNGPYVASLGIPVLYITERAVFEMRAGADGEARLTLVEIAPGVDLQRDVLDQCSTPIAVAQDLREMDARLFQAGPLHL

tartronyl-CoA = assay: malonyl-CoA reductase spectrophotometric assay, NADPH oxidation at 365 nm, tartronyl-CoA into glycerate (reactions 4# and 5); type: biochemical; settings: 0.25 mM tartronyl-CoA, 37° C.
Protocol: The kinetics of the MCRCa enzyme for enzymatically converting the substrate tartonyl-CoA into glycerate (via reactions 4# and 5 both catalyzed by MCRCa) were determined spectrophotometrically at 365 nm following the oxidation of NADPH. Per molecule tartronyl-CoA, two molecules of NADPH are oxidized by MCRCa (a first in reaction 4# and a second in reaction 5) The measurements were carried out at 37° C. in a total reaction volume of 200 μL containing 100 mM MOPS buffer (with 5 mM MgCl2, pH 7.5) with an initial NADPH concentration of 0.4 mM NADPH and 23 μg MCRCa.
An alternative enzyme for catalyzing the conversion of tartonyl-CoA into glycerate (via reactions 4# and 5) is the MCR from Erythrobacter sp. NAP1 (MCRE). It was tested for its activity with malonyl-CoA and for tartronyl-CoA with the assay described above for MCRCa.

glycolyl-CoA = assay: MCRCa coupled assay: glycolyl-CoA carboxylation by PCC coupled to two step reduction to glycerate by MCRCa (reactions 3#, 4#, 5), HPLC-hrMS and NADPH absorption; type: biochemical; settings: tartronyl-CoA produced by PCCMe_D407I_Y143H
Protocol: In addition to the above mentioned assays also another assay was performed in which the formation of tartronyl-CoA from glycolyl-CoA (reaction 3#) by the PCCMe_D407I_Y143H enzyme was directly coupled to its subsequent two step reduction via tartronate-semialdehyde (reaction 4#) to glycerate (reaction 5) by use of the purified MCRCa (Kröger et al., 2011, loc. cit.). The reaction mixture (300 μL) contained 200 mM NH4HCO3 buffer, pH 7.7, 5 mM MgCl2, 1 mM ATP, 0.4 mM NADPH, 43 μg PCCMe_D407I_Y143H, and 184 μg of MCRCa.
To determine whether MCRCa was able to catalyze the two step reduction of tartonyl-CoA to glycerate (via tartronic semialdehyde), samples of the reaction mixture were withdrawn after all of the NADPH was consumed. The samples were stopped with formic acid (5% final concentration). The acidified samples were centrifuged at 4° C. and 17 000×g and the supernatants were analyzed by HPLC-hrMS.
The formation of glycerate was analyzed using an Agilent 6550 iFunnel Q-TOF LC-MS system equipped with an electrospray ionization source set to negative ionization mode. […]
LC-MS data were analyzed using MassHunter Qualitative Analysis software (Agilent). […] In such assays the tartronate semialdehyde can be covalently derivatized with phenylhydrazine to a phenylhydrazone, which can be detected by its absorbance at 324 nm and confirmed by its corresponding mass spectrum. […]

malonyl-CoA = settings: 0.3 mM substrate, 37° C., Kröger et al. 2011; cited from earlier work

## CC(C)(COP(=O)(O)OP(=O)(O)OC[C@H]1O[C@@H](n2cnc3c(N)ncnc32)[C@H](O)[C@@H]1OP(=O)(O)O)[C@@H](O)C(=O)NCCC(=O)NCCSC(=O)CC(=O)O [malonyl-CoA]
[1]
  Km: 30 µM

## O=C(O)CO [glycolate]
[2]
  vmax: 1.3 ± 0.07 U mg^−1

B1: MCRCa: malonyl-CoA reductase of Chloroflexus aurantiacus, NCBI accession no. AAS20429.1, SEQ ID NO: 8 (protein, listed as Chloroflexus aurantiacus)
chain: T1 sequence (Q6QQP7 1-1220)
modifications: [CDS]1..3663 from SEQ ID NO 7
tartronyl-CoA
  specific activity with tartronyl-CoA: 0.6 U mg^−1
glycolyl-CoA
  reduction of tartronyl-CoA to glycerate (HPLC-hrMS): able to reduce the tartronyl-CoA, produced by PCCMe_D407I_Y143H, to glycerate
malonyl-CoA
  specific activity with malonyl-CoA: approximately 7 U mg^−1

Source: patent publication US10781456B2, “Carbon-neutral and carbon-positive photorespiration bypass routes supporting higher photosynthetic rate and yield” (Max-Planck-Gesellschaft zur Förderung der Wissenschaften …, priority 2015, dated 2020)
